Data from US20040067880A1 (priority 2002, published 2004).

What was measured:
[1] = molecular target: CS receptor on human cells (HepG2 hepatoma cells; human liver metastases of colorectal cancer) (human); assay: cell-based or functional assay
[2] = molecular target: CS receptor on mouse colorectal carcinoma MCA26 cells (mouse); assay: cell-based or functional assay
[3] = molecular target: CS receptor on rat cells (rat liver sections; rat hepatoma H4IIE) (rat); assay: cell-based or functional assay
[4] = molecular target: CS receptor on human cells (HepG2 hepatoma cells; human liver metastases of colorectal cancer) (human); assay: indirect immunofluorescence on frozen sections of human liver MCC from six patients
[5] = Cytosine deaminase enzymatic activity assay (conversion of [3H]cytosine to [3H]uracil); format: biochemical; settings: purified recombinant protein
Procedure: Crude cell extracts were prepared by sonicating cells in a buffer (50 mM Na phosphate, pH 7.8 and 0.3 M NaCl) followed by centrifugation. Cytosine deaminase activity was determined by measuring the production of uracil in a reaction mixture (50 μl) containing 5 mM, 6-[^3H]cytosine (0.45 Ci/mol), 50 mM Tris-HCl pH 7.8, 1 mM DTT, 1 mM EDTA and cellular crude extract (10-20 μg/ml) or eluted fractions. After 1-2 hour of incubation at 37° C., 10 μl aliquots were withdrawn and analyzed by thin layer chromatography (Silica Gel 60, Selecto Scientific, Norcross, Ga.). Chromatograms were developed in 1-butanol /water (86/14, v/v). Positions of cytosine and uracil were identified by […]. The corresponding spots for cytosine and uracil were cut out and radioactivities were determined in a scintillation counter. In some cases, 6-[3H] 5-FC (4.0 Ci/mmol) was used as a substrate in the assay.

HepG2 cells [6] = format: cell-based, human; settings: HepG2, 0.64 μM protein 4 hrs, 1 mM 5-FC, viability after 4 days
HL60 cells = assay: Cytotoxicity assay with 5-FC in HL60 cells; format: cell-based; settings: HL-60, 0.64 μM protein 4 hrs, protein removed (washed), 1 mM 5-FC
HepG2 cells [7] = assay: Persistent effect on 5-FC cell killing of HepG2 cells; format: cell-based, human; settings: HepG2, 0.5 μM protein 4 hrs, then 5-FC at intervals
Procedure: FIG. 7. Persistent effect of CD-CS on cell killing of HepG2 cells. HepG2 cells were treated with 0.8 μM of CD-CS or with CD as a control for 4 hr. Cells was washed with fresh medium and cultured in the regular medium. Cultures were split once every 6 days. At different time intervals, cells were treated with 1 mM 5-FC. Cell viability was counted 4 days thereafter. Each point represents an average of three independent experiments.
HepG2 cells were treated with 0.5 μM of CD-CS or CD for 4 hrs and the recombinant proteins were removed from the medium and the cells were maintained in fresh medium thereafter. At different time intervals, cells were treated with 5-FC. Sustained cell killing was observed even 28 days after the removal of the recombinant protein (FIG. 7).

CD-CS fusion protein (cytosine deaminase fused to repeat-deleted malarial circumsporozoite protein, encoded by pCD5-73.15.5) (from UniProt P19597 27-29; P25524 2-427; P19597 30-396)
LD50 of CD-CS-mediated cell killing, HepG2 [1]: 0.22 µM
LD50 of CD-CS-mediated cell killing, MCA26 [2]: 0.22 µM
LD50 of CD-CS-mediated cell killing, rat hepatoma H-4-II-E [3]: 0.22 µM

full-length recombinant CS protein (malarial circumsporozoite protein) (from UniProt P19597 27-396) (ligand)
positive staining cells [4]: > 90%

B1: CD: recombinant Escherichia coli cytosine deaminase with 6 histidine residues at the C-terminus (protein, UniProt P25524 2-427, looked up)
Cytosine deaminase: SNNALQTIINARLPGEEGLWQIHLQDGKISAIDAQSGVMPITENSLDAEQGLVIPPFVEPHIHLDTTQTAGQPNWNQSGTLFEGIERWAERKALLTHDDVKQRAWQTLKWQIANGIQHVRTHVDVSDATLTALKAMLEVKQEVAPWIDLQIVAFPQEGILSYPNGEALLEEALRLGADVVGAIPHFEFTREYGVESLHKTFALAQKYDRLIDVHCDEIDDEQSRFVETVAALAHHEGMGARVTASHTTAMHSYNGAYTSRLFRLLKMSGINFVANPLVNIHLQGRFDTYPKRRGITRVKEMLESGINVCFGHDDVFDPWYPLGTANMLQVLHMGLHVCQLMGYGQINDGLNLITHHSARTLNLQDYGIAAGNSANLIILPAENGFDALRRQVPVRYSVRGGKVIASTQPAQTTVYLEQPEAIDYKR
modifications: C-terminal His6 tag
notes: recombinant Escherichia coli cytosine deaminase with 6 histidine residues at the C-terminus
specific activity, conversion of [3H]cytosine to [3H]uracil [5]: 3,308 nmol/min/mg protein
sensitivity of protein-treated cells to 5-FC (HepG2 cells [6]; unwashed): sensitive
sensitivity of protein-pretreated cells to 5-FC / cell killing (HepG2 cells [6]; washed): could not
cell death upon subsequent addition of 5-FC (HL60 cells): failed to induce cell death
cell killing (basal level) (HepG2 cells [7]): < 10%
